In the RNAGym collection of RNA variant scans (doi:10.1073/pnas.2313332121):
Fewer inactive variants are shown than the library holds.

B1: TPR 5TU (parent)
chain: GGAUCUUCUCGAUCUAACAAAAAAGACAAAUCUGCCACAAAGCUUGAGAGCAUCUUCGGAUGCAGAGGCGGCAGCCUUCGGUGGCGCGAUAGCGCCAACGUUCUCAACUAUGACACGCAAAACGCGUGCUCCGUUGAAUGGAGUUUAUCAUG

Variants of: B1
Test: polymerase ribozyme fitness, log enrichment relative to wild type (log ratio); higher = more active; in vitro selection for triplet polymerase activity
In short: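 Mutant libraries of each subunit of a heterodimeric triplet polymerase ribozyme were built by PCR and transcribed. Each library went through one round of in vitro selection in triplicate: annealing with biotinylated primer, partner subunit and triplets, frozen incubation at −7 °C, gel excision of extended constructs, streptavidin-bead capture and RT-PCR. Input and output libraries were Illumina-sequenced; only genotypes with ≥10 input reads and ≥1 read per output were kept. Fitness is log2(genotype enrichment/wild-type enrichment), using inverse-variance-weighted replicate averages.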

C8G A23U C27G A40G A49C C87U U104G U134G G140A and U7A C14U U31A C57G U61A A89U U90C C99A A115U A122C cannot be ordered by “polymerase ribozyme fitness (log ratio)” value: at most -4.2 for the first, at most -4.2 for the second.

Going from U7C A12C C87A C105A C116G A138U G152U to U7G A47U U55A C57A C63U C95U, the “polymerase ribozyme fitness (log ratio)” value rises from at most -4.2 to -3.6.

C8A A47G A49G A52C U55A G88U U104A A119U U146C U148A and C8G A29C U55G A60G C85G A89G G140C cannot be ordered by “polymerase ribozyme fitness (log ratio)” value: at most -4.2 for the first, at most -4.2 for the second.

C8G C14G C18G C96U A137U and U7G C8G U45G A66U C85U A138U cannot be ordered by “polymerase ribozyme fitness (log ratio)” value: at most -4.2 for the first, at most -4.2 for the second.

U7A C79G G94C C114A C118G and U7A C14G C32U A106G U148C cannot be ordered by “polymerase ribozyme fitness (log ratio)” value: at most -4.2 for the first, at most -4.2 for the second.

C8G A12C A23G A52U C57U C93A C95G A110U and C8A C10U U33A G81U C87A C103G A147C cannot be ordered by “polymerase ribozyme fitness (log ratio)” value: at most -4.2 for the first, at most -4.2 for the second.

U7G G74A C103A and U7G A21C C36U C54U C79G G83A U144A cannot be ordered by “polymerase ribozyme fitness (log ratio)” value: at most -4.2 for the first, at most -4.2 for the second.

Going from U6G U31G U61A C95A G136A to U7A A23C G50U G59A A73C G86U C95G C108U, the “polymerase ribozyme fitness (log ratio)” value falls from -1.38 to at most -4.2.

U7A G25A G50U G84U and C8G A28U C87U C105U cannot be ordered by “polymerase ribozyme fitness (log ratio)” value: at most -4.2 for the first, at most -4.2 for the second.

U6G U13G A16G C85G G86A A142G and U7A G11A A41G A66C U77C C85U A106C U151A cannot be ordered by “polymerase ribozyme fitness (log ratio)” value: at most -4.2 for the first, at most -4.2 for the second.

Going from U7A A29U C35U A66C U82G A113U to C8A G42A G59U G67C, the “polymerase ribozyme fitness (log ratio)” value falls from -3.86 to at most -4.2.

Going from U7G C54U G92U to U7C C76U G84A A119U U145G, the “polymerase ribozyme fitness (log ratio)” value falls from -2.21 to -3.32.

U7A A73G C87G C131A and C8A A17C A26C A40C C87U U144G cannot be ordered by “polymerase ribozyme fitness (log ratio)” value: at most -4.2 for the first, at most -4.2 for the second.

U7G C63A C96G and C8G C27G C36G A39C C85A cannot be ordered by “polymerase ribozyme fitness (log ratio)” value: at most -4.2 for the first, at most -4.2 for the second.

First: U7C G86U
Second: U7G C18U A19U A28U C85A C87U A97U
The “polymerase ribozyme fitness (log ratio)” value of the first is higher: -3.7 for the first, at most -4.2 for the second.

U7C G50A G84U C87A U151A and U7A U55A C85U C114A G136C cannot be ordered by “polymerase ribozyme fitness (log ratio)” value: at most -4.2 for the first, at most -4.2 for the second.

First: U7A G92U
Second: C8G A24G A30G G70A G136C
The “polymerase ribozyme fitness (log ratio)” value of the first is higher: -3.96 for the first, at most -4.2 for the second.

Compared with U7G U82A G117U, C8A A64C C72A C95U C116G A121C A138C is lower in “polymerase ribozyme fitness (log ratio)” value: -3.65 for the first, at most -4.2 for the second.

C8A A16U A17U A26U G80C C87U U139G U151A and C8A A17U A26U G48U G68U C93G C132G G141C U148G cannot be ordered by “polymerase ribozyme fitness (log ratio)” value: at most -4.2 for the first, at most -4.2 for the second.

C8G A12G G42C U82A C95U C108U G136A G143A A150U and C8A A26U A49U G83U U101G C118U A138C cannot be ordered by “polymerase ribozyme fitness (log ratio)” value: at most -4.2 for the first, at most -4.2 for the second.

First: U7G C69G C93A
Second: U6G G83A
The “polymerase ribozyme fitness (log ratio)” value of the first is lower: at most -4.2 for the first, -0.0531 for the second.

U7A A20G C35U A47G G83A C96A and C8A C14U C54A C99A cannot be ordered by “polymerase ribozyme fitness (log ratio)” value: at most -4.2 for the first, at most -4.2 for the second.

U7C A19U C35U A37G U55G C76G G86A G88U C103G G124A and C8G A29C G34C U78G G86U A97C C149U cannot be ordered by “polymerase ribozyme fitness (log ratio)” value: at most -4.2 for the first, at most -4.2 for the second.

U7A A28U A40U U55A C57A C76U U78G C96G C123G and C8A U44A C51A A66G C85U U130G cannot be ordered by “polymerase ribozyme fitness (log ratio)” value: at most -4.2 for the first, at most -4.2 for the second.

U7G A12G C18G C32U G94C A115U and C8G C14A A30C C69U C76G A98U U144G cannot be ordered by “polymerase ribozyme fitness (log ratio)” value: at most -4.2 for the first, at most -4.2 for the second.

Going from U7A A26G C75G C93A to U6G U44G A47U U53C A64C C103A, the “polymerase ribozyme fitness (log ratio)” value falls from -4.13 to at most -4.2.

First: C8A A73G C93A U146C
Second: C8A A28U C79U C93U C105U
The “polymerase ribozyme fitness (log ratio)” value of the first is higher: -4.17 for the first, at most -4.2 for the second.

U7G A22G C32U G59C U77G C114U U145A and C8G A20C A73U C99G A106G G140A U144G A147C cannot be ordered by “polymerase ribozyme fitness (log ratio)” value: at most -4.2 for the first, at most -4.2 for the second.

U7A U9A A21U U55A G59A C99G C129U A147C and U7G A40G A52C G65U A73G U82A C93G U134A U148G cannot be ordered by “polymerase ribozyme fitness (log ratio)” value: at most -4.2 for the first, at most -4.2 for the second.

C8A A12G and C8A U144C are within 0.2 log units of each other in “polymerase ribozyme fitness (log ratio)” value: -3.98 for the first, -4.16 for the second.

U7C C38A C51G G83U G84A and C8A C10U C75A G86A A98U A138C cannot be ordered by “polymerase ribozyme fitness (log ratio)” value: at most -4.2 for the first, at most -4.2 for the second.

C8A U56A A60U C93A U109G A113U U139G U145C A147G and C8A A22G U56A C57U C85G cannot be ordered by “polymerase ribozyme fitness (log ratio)” value: at most -4.2 for the first, at most -4.2 for the second.

Going from C8A C93U to C8A C93A, the “polymerase ribozyme fitness (log ratio)” value falls from -3.42 to at most -4.2.

U7C U55A C63U G88U A107U U145A and U7A A28G A40U A49C G50C C87A U144G cannot be ordered by “polymerase ribozyme fitness (log ratio)” value: at most -4.2 for the first, at most -4.2 for the second.

U6G G48C A52G C96A A121U G140A and C8A U13G G50C C76G C118A cannot be ordered by “polymerase ribozyme fitness (log ratio)” value: at most -4.2 for the first, at most -4.2 for the second.

Going from C8A A17U A23U A26G C27G U90G G92A A115C to U6G G68A, the “polymerase ribozyme fitness (log ratio)” value rises from at most -4.2 to -3.62.

First: C8A U15G C18U G58C C96G
Second: U6G G141A
The “polymerase ribozyme fitness (log ratio)” value of the first is lower: -3.95 for the first, 0.243 for the second.

First: U7A A20U U31G C116U
Second: U6G U7C A20U A39G A40C G42C G59A G92U C93G A115U C116U
The “polymerase ribozyme fitness (log ratio)” value of the first is higher: -3.58 for the first, at most -4.2 for the second.

C8G A24G U33G G59A G71A G74A U144C and C8G C10A A30C U56A C57G C87U U102G G143C cannot be ordered by “polymerase ribozyme fitness (log ratio)” value: at most -4.2 for the first, at most -4.2 for the second.

U7A A21U G25U U44A A49C C54A C63G C85U G86U C99G and C8A C14G U53C G58A G62C C85G cannot be ordered by “polymerase ribozyme fitness (log ratio)” value: at most -4.2 for the first, at most -4.2 for the second.

U7A A20C C93G C116G U135G and U7A C8G U13G U90G C95G U134A cannot be ordered by “polymerase ribozyme fitness (log ratio)” value: at most -4.2 for the first, at most -4.2 for the second.

In the case of U7G G42C U61A C96U G112C G124C G126C G136A, the “polymerase ribozyme fitness (log ratio)” value is reported as at most -4.2.
